Assays:
Settings in all cases: both partners purified
[1] = biological target: T1, recombinant mouse laminin γ1 chain C-terminal coiled-coil fragment (1362–1607) (mouse, UniProt P02468 1362-1607); assay: native gel or EMSA; mixtures of one β and one γ chain fragment; 10% non-denaturing PAGE (acid gels for basic complexes); mixtures reduced, heated to 70 °C for 5 min and cooled; run overnight at 50 V; Coomassie; bands confirmed by in-gel trypsin digestion and mass spectrometry
T1 construct: two residues (GlySer) left from the protease recognition site after thrombin cleavage; laminin γ1 chain, mouse, C-terminal coiled-coil fragment, residues 1362-1607 of the native chain (246 residues); source: E. coli JM109(DE3), purified (Ni2+-Sepharose, denaturing, 8 M urea), 6xHis tag removed by thrombin; not shown: 6xHis, N-terminal, cleaved; pPEP-T leader (short C-terminal fragment of the …)
T1 sequence: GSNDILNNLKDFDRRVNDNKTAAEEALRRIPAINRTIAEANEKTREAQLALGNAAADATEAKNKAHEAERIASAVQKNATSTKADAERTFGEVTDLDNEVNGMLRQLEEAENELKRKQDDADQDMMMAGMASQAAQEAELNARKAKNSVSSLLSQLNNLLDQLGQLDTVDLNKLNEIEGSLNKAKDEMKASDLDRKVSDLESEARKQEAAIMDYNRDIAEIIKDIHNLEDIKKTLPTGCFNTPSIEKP

[2] = biological target: T2, recombinant mouse laminin γ3 chain C-terminal coiled-coil fragment (1344–1581) (mouse, UniProt Q9R0B6 1344-1581); assay: as above
T2 construct: two residues (GlySer) left from the protease recognition site after thrombin cleavage; laminin γ3 chain, mouse, C-terminal coiled-coil fragment, residues 1344-1581 of the native chain (238 residues); source: E. coli JM109(DE3), purified (Ni2+-Sepharose, denaturing, 8 M urea), 6xHis tag removed by thrombin; not shown: 6xHis, N-terminal, cleaved
T2 sequence: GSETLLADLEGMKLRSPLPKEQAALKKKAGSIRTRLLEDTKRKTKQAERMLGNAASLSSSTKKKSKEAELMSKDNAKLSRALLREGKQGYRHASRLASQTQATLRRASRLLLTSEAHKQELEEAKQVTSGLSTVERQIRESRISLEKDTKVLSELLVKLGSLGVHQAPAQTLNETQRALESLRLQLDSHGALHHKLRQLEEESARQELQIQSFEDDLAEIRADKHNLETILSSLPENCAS

[3] = biological target: T3, recombinant mouse laminin γ2 chain C-terminal coiled-coil fragment (949–1191) (mouse, UniProt Q61092 949-1191); assay: as above
T3 construct: two residues (GlySer) left from the protease recognition site after thrombin cleavage; laminin γ2 chain, mouse, C-terminal coiled-coil fragment, residues 949-1191 of the native chain (243 residues); source: E. coli JM109(DE3), purified (Ni2+-Sepharose, denaturing, 8 M urea), 6xHis tag removed by thrombin; not shown: 6xHis, N-terminal, cleaved; pPEP-T leader (short C-terminal fragment of the …)
T3 sequence: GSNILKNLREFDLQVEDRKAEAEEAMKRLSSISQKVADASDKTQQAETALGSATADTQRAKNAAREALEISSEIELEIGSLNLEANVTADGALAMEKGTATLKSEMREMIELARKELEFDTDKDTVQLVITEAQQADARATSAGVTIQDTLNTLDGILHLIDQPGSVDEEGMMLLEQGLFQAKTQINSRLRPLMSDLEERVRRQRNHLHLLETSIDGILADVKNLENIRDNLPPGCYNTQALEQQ

[4] = biological target: T4, β2γ3 complex of the recombinant mouse laminin coiled-coil fragments (mouse, UniProt Q61292 1575-1799; Q9R0B6 1344-1581); assay: native gel or EMSA; mixtures of one α, one β and one γ chain fragment; 10% non-denaturing PAGE (acid gels for basic complexes); mixtures reduced, heated to 70 °C for 5 min and cooled; run overnight at 50 V, room temperature, no cooling; Coomassie; bands confirmed by in-gel trypsin digestion and mass spectrometry
T4 construct: two residues (GlySer) left from the protease recognition site after thrombin cleavage; laminin β2 chain, mouse, residues 1575-1799 of the native chain; as m7; laminin γ3 chain, mouse, residues 1344-1581 of the native chain; as m11; in the αβγ tests all three chains were mixed, the βγ complex was not isolated beforehand; source: mixture of the purified E. coli fragments; not shown: 6xHis, …
T4 sequence 1: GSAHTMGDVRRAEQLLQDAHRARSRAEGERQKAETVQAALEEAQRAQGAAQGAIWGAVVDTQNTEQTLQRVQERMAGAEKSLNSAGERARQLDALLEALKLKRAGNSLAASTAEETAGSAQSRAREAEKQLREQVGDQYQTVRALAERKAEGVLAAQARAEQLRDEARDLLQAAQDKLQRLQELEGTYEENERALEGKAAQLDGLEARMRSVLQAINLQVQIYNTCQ
T4 sequence 2: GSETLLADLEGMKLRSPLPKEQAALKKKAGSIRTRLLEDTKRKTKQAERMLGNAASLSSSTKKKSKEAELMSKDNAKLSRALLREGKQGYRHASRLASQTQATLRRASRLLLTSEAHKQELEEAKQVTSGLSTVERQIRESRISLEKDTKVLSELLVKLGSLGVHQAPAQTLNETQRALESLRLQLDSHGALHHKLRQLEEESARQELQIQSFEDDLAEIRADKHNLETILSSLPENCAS

[5] = biological target: T5, β2γ1 complex of the recombinant mouse laminin coiled-coil fragments (mouse, UniProt Q61292 1575-1799; P02468 1362-1607); assay: as above
T5 construct: two residues (GlySer) left from the protease recognition site after thrombin cleavage; laminin β2 chain, mouse, residues 1575-1799 of the native chain; as m7; laminin γ1 chain, mouse, residues 1362-1607 of the native chain; as m9; in the αβγ tests all three chains were mixed, the βγ complex was not isolated beforehand; source: mixture of the purified E. coli fragments; not shown: 6xHis, …
T5 sequence 1: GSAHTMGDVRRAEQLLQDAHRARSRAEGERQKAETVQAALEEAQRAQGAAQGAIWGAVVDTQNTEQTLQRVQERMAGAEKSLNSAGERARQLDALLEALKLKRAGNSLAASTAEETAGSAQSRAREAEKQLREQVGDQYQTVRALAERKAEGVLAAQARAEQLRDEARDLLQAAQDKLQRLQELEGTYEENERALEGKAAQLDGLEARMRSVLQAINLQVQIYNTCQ
T5 sequence 2: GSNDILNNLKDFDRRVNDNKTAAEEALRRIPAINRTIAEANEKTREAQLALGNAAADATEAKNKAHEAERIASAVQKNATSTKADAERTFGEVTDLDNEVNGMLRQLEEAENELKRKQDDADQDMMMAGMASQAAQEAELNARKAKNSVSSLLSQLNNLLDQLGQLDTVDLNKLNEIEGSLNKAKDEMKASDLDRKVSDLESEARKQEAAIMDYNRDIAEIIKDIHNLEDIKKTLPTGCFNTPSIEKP

[6] = biological target: T6, β1γ1 complex of the recombinant mouse laminin coiled-coil fragments (mouse, UniProt P02469 1561-1786; P02468 1362-1607); assay: as above
T6 construct: two residues (GlySer) left from the protease recognition site after thrombin cleavage; laminin β1 chain, mouse, residues 1561-1786 of the native chain; as m6; laminin γ1 chain, mouse, residues 1362-1607 of the native chain; as m9; heterodimer by AUC; in the αβγ tests all three chains were mixed, the βγ complex was not isolated beforehand; source: mixture of the purified E. coli fragments; not …
T6 sequence 1: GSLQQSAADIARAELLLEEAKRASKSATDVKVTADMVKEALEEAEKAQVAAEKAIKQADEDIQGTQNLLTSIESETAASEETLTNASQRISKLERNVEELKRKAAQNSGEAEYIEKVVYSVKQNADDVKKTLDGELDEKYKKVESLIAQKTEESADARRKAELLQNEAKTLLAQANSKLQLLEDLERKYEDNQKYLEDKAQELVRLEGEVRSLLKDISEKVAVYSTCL
T6 sequence 2: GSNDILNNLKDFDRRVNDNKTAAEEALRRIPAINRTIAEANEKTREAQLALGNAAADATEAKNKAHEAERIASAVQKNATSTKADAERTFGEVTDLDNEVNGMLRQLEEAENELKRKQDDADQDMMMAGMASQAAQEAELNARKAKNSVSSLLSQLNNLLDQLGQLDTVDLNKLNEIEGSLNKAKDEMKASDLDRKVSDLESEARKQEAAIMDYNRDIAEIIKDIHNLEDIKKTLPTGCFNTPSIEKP

[7] = biological target: T7, β2γ2 complex of the recombinant mouse laminin coiled-coil fragments (mouse, UniProt Q61292 1575-1799; Q61092 949-1191); assay: as above
T7 construct: two residues (GlySer) left from the protease recognition site after thrombin cleavage; laminin β2 chain, mouse, residues 1575-1799 of the native chain; as m7; laminin γ2 chain, mouse, residues 949-1191 of the native chain; as m10; in the αβγ tests all three chains were mixed, the βγ complex was not isolated beforehand; also called β2γ2 dimer; source: mixture of the purified E. coli fragments; not …
T7 sequence 1: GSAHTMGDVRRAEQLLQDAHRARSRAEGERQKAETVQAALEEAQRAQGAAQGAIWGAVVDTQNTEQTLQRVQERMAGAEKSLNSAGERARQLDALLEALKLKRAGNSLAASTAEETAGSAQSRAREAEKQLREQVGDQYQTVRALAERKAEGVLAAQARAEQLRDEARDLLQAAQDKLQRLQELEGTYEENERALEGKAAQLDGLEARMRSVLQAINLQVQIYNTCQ
T7 sequence 2: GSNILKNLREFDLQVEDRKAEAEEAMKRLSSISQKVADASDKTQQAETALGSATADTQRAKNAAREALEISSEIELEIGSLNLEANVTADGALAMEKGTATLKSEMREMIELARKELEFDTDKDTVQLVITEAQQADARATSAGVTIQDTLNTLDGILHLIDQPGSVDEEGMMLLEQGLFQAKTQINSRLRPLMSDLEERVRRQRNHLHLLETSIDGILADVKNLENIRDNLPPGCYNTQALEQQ

Measured: binding result

B1: recombinant mouse laminin β1 chain C-terminal coiled-coil fragment (1561–1786) (domain or fragment)
chain: GSLQQSAADIARAELLLEEAKRASKSATDVKVTADMVKEALEEAEKAQVAAEKAIKQADEDIQGTQNLLTSIESETAASEETLTNASQRISKLERNVEELKRKAAQNSGEAEYIEKVVYSVKQNADDVKKTLDGELDEKYKKVESLIAQKTEESADARRKAELLQNEAKTLLAQANSKLQLLEDLERKYEDNQKYLEDKAQELVRLEGEVRSLLKDISEKVAVYSTCL
notes: two residues (GlySer) left from the protease recognition site after thrombin cleavage; laminin β1 chain, mouse, C-terminal coiled-coil fragment, residues 1561-1786 of the native chain (226 residues); source: E. coli JM109(DE3), purified (Ni2+-Sepharose, denaturing, 8 M urea), 6xHis tag removed by thrombin; not shown: 6xHis, N-terminal, cleaved
binds: [1] | [2] | [3]

B2: recombinant mouse laminin α4 chain C-terminal coiled-coil fragment (616–842) (domain or fragment)
chain: GSASNVYENIANYVSEANETAELALNITDRIYDAVSGIDTQIIYHKDESDNLLNQARELQAKADSSNDEAVADTSRRVGGALWRKGALRDRLNDAVKQLQAAERGDAHQRLGQSKLFIEEANKTTAAVQQVTTPMANNLSNWSQNLQTFDSSAYNTAVDSARDAVRNLTEVVPQLLDQLRTVEQKRPASNISASIQRIRELIAQTRSVASKIQVSMMFDGQSAVEVHPK
notes: two residues (GlySer) left from the protease recognition site after thrombin cleavage; laminin α4 chain, mouse, C-terminal coiled-coil fragment, residues 616-842 of the native chain (227 residues); source: E. coli JM109(DE3), purified (Ni2+-Sepharose, denaturing, 8 M urea), 6xHis tag removed by thrombin; not shown: 6xHis, N-terminal, cleaved; pPEP-T leader (short C-terminal fragment of the …)
binds: [4] | [5] | [6] | [7]

B3: recombinant mouse laminin α5 chain C-terminal coiled-coil fragment (2525–2748) (domain or fragment)
chain: GSNAYSSILQAVQAAEDAAGQALRQASRTWEMVVQRGLAAGARQLLANSSALEETILGHQGRLGLAQGRLQAAGIQLHNVWARKNQLAAQIQEAQAMLAMDTSETSEKIAHAKAVAAEALSTATHVQSQLQGMQKNVERWQSQLGGLQGQDLSQVERDASSSVSTLEKTLPQLLAKLSRLENRGVHNASLALSANIGRVRKLIAQARSAASKVKVSMKFNGRSGVR
notes: two residues (GlySer) left from the protease recognition site after thrombin cleavage; laminin α5 chain, mouse, C-terminal coiled-coil fragment, residues 2525-2748 of the native chain (224 residues); source: E. coli JM109(DE3), purified (Ni2+-Sepharose, denaturing, 8 M urea), 6xHis tag removed by thrombin; not shown: 6xHis, N-terminal, cleaved
binds: [4] | [5] | [6]

B4: recombinant mouse laminin β2 chain C-terminal coiled-coil fragment (1575–1799) (domain or fragment)
chain: GSAHTMGDVRRAEQLLQDAHRARSRAEGERQKAETVQAALEEAQRAQGAAQGAIWGAVVDTQNTEQTLQRVQERMAGAEKSLNSAGERARQLDALLEALKLKRAGNSLAASTAEETAGSAQSRAREAEKQLREQVGDQYQTVRALAERKAEGVLAAQARAEQLRDEARDLLQAAQDKLQRLQELEGTYEENERALEGKAAQLDGLEARMRSVLQAINLQVQIYNTCQ
notes: two residues (GlySer) left from the protease recognition site after thrombin cleavage; laminin β2 chain, mouse, C-terminal coiled-coil fragment, residues 1575-1799 of the native chain (225 residues); source: E. coli JM109(DE3), purified (Ni2+-Sepharose, denaturing, 8 M urea), 6xHis tag removed by thrombin; not shown: 6xHis, N-terminal, cleaved
binds: [1] | [2] | [3]
